The assay deals with HA of A/Michigan/45/2015 H1N1 virus (Influenza A virus A/Michigan/45/2015 …, UniProt A0A1J0CXU0, strain). The assay is described as follows: ELISA.

B1: 047–09 4B06 mAb (human IgG1) (antibody, V domains shown)
VH: EVQLLESGGGLVQPGGSLRLSCAASGFIFGHFAMTWVRQAPGKGLEWLSAISGGGLNTYYAESVKGRFTMSRDNSKNTLYLQMGSLRAEDAAVYYCARFDSSGYNYVRGMVVWGQGTAV
VL: DIQMTQSPSSLSVSIGDRITITCQASQDIKNYLGWYQHKPGKAPKLLIYHVSNLEAGVPSRFSGSGSGTDFTFTISSLQPEDIGTYYCHQCYNLPYTFGQGTKVEIK
In the case of B1, the binding result is on record as “binds”.

Source of the values: paper PMC10173203 (Science translational medicine, 2021).
